Reference: patent US12379386B2, “Antibodies to 25-hydroxyvitamin D2 and D3 for detecting total 25-hydroxyvitamin D” (Siemens Healthcare Diagnostics Inc., priority 2011, dated 2025)

Columns and labels:
Assay type in all cases: binding
[1] = tested on: Vit D C22-Diaminobutane-Suberoyl-KLH; experiment: 10H9 hybridoma supernatant ELISA on coated plate, no competing antigen; conditions: Ag 0, coat 50 ng/mL
Procedure: (§1) Following isolation of hybridoma clones, studies were conducted to determine the relative ability of the antibodies to bind to both 25-hydroxyvitamin D2 and 25-hydroxyvitamin D3. To assess this, antibody displacement assays were conducted to determine the degree to which binding between vitamin D-C22 BSA and a reactive antibody raised against the antigen (10H9) could be disrupted by the presence of 25-hydroxyvitamin D2 or 25-hydroxyvitamin D3. Cell culture supernatant from the 10H9 hybridoma cell lines producing antibodies reactive to vitamin D-C22 BSA were coincubated in the presence or absence of 25-hydroxyvitamin D2 or 25-hydroxyvitamin D3 on microtiter plates coated with vitamin D-C22 KLH for 1 hour. After washing the plates, goat anti-mouse IgG-HRPO was added and incubated for 30 minutes. Plates were washed and then incubated with tetramethyl benzidine (TMB). The generated color was stopped using 1N sulfuric acid and the optical density was measured at 450 nm.

[2] = Antibody displacement assay, 10H9 supernatant, competitor 25-hydroxyvitamin D2; conditions: for optical density at 450 nm: 25 OH-D2 0.4 μg/mL, coat Vit D C22-Diaminobutane-Suberoyl-KLH 50 ng/mL
Procedure: as §1

[3] = Displacement assay with purified coated 10H9 and alkaline phosphatase tracer, competitor 25-hydroxyvitamin D3; conditions: for optical density at 405 nm: MAb coat 1 ug/mL
Procedure: (§2) Next, displacement experiments were conducted using purified antibody, rather than cell supernatant. In this experiment, the antibody of interest was coated directly on the microtiter plate via a two-hour incubation. Coated plates were washed and then coincubated with either 25-hydroxyvitamin D2 or 25-hydroxyvitamin D3 in the presence of alkaline phosphatase-conjugated vitamin D-C22 BSA. After 30 minutes the plates were washed and color was developed by adding the substrate p-nitrophenyl phosphate (PNPP). Optical density colored solution was measured at 405 nm.

[4] = Antibody displacement assay, 10H9 supernatant, competitor 25-hydroxyvitamin D3; conditions: for optical density at 450 nm: 25 OH-D3 0.4 μg/mL, coat Vit D C22-Diaminobutane-Suberoyl-KLH 50 ng/mL
Procedure: as §1

[5] = Displacement assay with purified coated 10H9 and alkaline phosphatase tracer, competitor 25-hydroxyvitamin D2; conditions: for optical density at 405 nm: MAb coat 1 ug/mL
Procedure: as §2

B1: 10H9: murine monoclonal antibody from the 10H9 hybridoma, raised against vitamin D-C22 BSA; binds 25-hydroxyvitamin D2 and D3 (antibody, V domains shown)
VH: VQLLESGPELVKPGASMKISCKASGYSFTDYTMNWVKQSHGKNLEWIGLINPYNGFTIYNQKFKGKATLTVDKSSSTAYMELLSLTSEDSAVYYFIRAHYDGRVFWGQGTTLTVSS
VL: CELVMTQSPLSLPVSLGDQASVSCRSSQSLVHSNGNTYLHRYLQKPGQSPKLLIYQVSNRFSGVPDRFSGSGSGTDFTLKITRVEAEDLGVYFCSQITHFPPTFGGGTKLEIKR
modifications: Description of Unknown: 10H9 monoclonal antibody heavy chain variable region polypeptide; Description of Unknown: 10H9 monoclonal antibody light chain variable region polypeptide
optical density at 450 nm ([1]; supernatant dilution 1:4): 1.997
optical density at 450 nm ([1]; supernatant dilution 1:16): 1.244
optical density at 450 nm ([1]; supernatant dilution 1:64): 0.672
optical density at 450 nm ([1]; supernatant dilution 1:256): 0.313
disruption of antibody binding by coincubation ([2]; 10H9 supernatant, 25-hydroxyvitamin D2): disrupted in a concentration-dependent manner
optical density at 450 nm ([2]; supernatant dilution 1:4): 0.323
optical density at 450 nm ([2]; supernatant dilution 1:16): 0.154
optical density at 450 nm ([2]; supernatant dilution 1:64): 0.097
optical density at 450 nm ([2]; supernatant dilution 1:256): 0.086
optical density at 405 nm ([3]; 25OH-VIT D3 0 ng/ml): 1.213
optical density at 405 nm ([3]; 25OH-VIT D3 5 ng/ml): 1.083
optical density at 405 nm ([3]; 25OH-VIT D3 10 ng/ml): 0.800
optical density at 405 nm ([3]; 25OH-VIT D3 25 ng/ml): 0.519
optical density at 405 nm ([3]; 25OH-VIT D3 100 ng/ml): 0.115
optical density at 405 nm ([3]; 25OH-VIT D3 200 ng/ml): 0.089
optical density at 405 nm ([3]; 25OH-VIT D3 400 ng/ml): 0.077
optical density at 405 nm ([3]; 25OH-VIT D3 1000 ng/ml): 0.069
disruption of 10H9 binding to vitamin D-C22 BSA by coincubation ([3]; purified antibody, 25-hydroxyvitamin D3): disrupted in a concentration-dependent manner
disruption of antibody binding by coincubation ([4]; 10H9 supernatant, 25-hydroxyvitamin D3): disrupted in a concentration-dependent manner
optical density at 450 nm ([4]; supernatant dilution 1:4): 0.384
optical density at 450 nm ([4]; supernatant dilution 1:16): 0.176
optical density at 450 nm ([4]; supernatant dilution 1:64): 0.105
optical density at 450 nm ([4]; supernatant dilution 1:256): 0.090
optical density at 405 nm ([5]; 25OH-VIT D2 0 ng/ml): 1.277
optical density at 405 nm ([5]; 25OH-VIT D2 5 ng/ml): 1.189
optical density at 405 nm ([5]; 25OH-VIT D2 10 ng/ml): 1.007
optical density at 405 nm ([5]; 25OH-VIT D2 25 ng/ml): 0.771
optical density at 405 nm ([5]; 25OH-VIT D2 100 ng/ml): 0.106
optical density at 405 nm ([5]; 25OH-VIT D2 200 ng/ml): 0.080
optical density at 405 nm ([5]; 25OH-VIT D2 400 ng/ml): 0.069
optical density at 405 nm ([5]; 25OH-VIT D2 1000 ng/ml): 0.063
disruption of 10H9 binding to vitamin D-C22 BSA by coincubation ([5]; purified antibody, 25-hydroxyvitamin D2): disrupted in a concentration-dependent manner
